Patent US20230227571A1 (published 2023)
Where two headings read alike, the source gives them in different places. Values belong to the binder of their own block, whether it stands above or below them.

Experiments:
Experiment in all cases: SPR (Biacore)
[1] = target: T1, human C5 (purified human complement C5, Complement Technology #A120; also C5 in normal human serum) (human, UniProt P01031 19-673; P01031 678-1676)
[2] = target: T1, human C5 (purified human complement C5, …); remark: listed apart in the source
[3] = target: T1, human C5 (purified human complement C5, …); remark: listed apart in the source
[4] = target: T1, human C5 (purified human complement C5, …); remark: listed apart in the source
[5] = target: T1, human C5 (purified human complement C5, …); remark: listed apart in the source

T1 sequence (P01031 19-673, chain 1 of 2): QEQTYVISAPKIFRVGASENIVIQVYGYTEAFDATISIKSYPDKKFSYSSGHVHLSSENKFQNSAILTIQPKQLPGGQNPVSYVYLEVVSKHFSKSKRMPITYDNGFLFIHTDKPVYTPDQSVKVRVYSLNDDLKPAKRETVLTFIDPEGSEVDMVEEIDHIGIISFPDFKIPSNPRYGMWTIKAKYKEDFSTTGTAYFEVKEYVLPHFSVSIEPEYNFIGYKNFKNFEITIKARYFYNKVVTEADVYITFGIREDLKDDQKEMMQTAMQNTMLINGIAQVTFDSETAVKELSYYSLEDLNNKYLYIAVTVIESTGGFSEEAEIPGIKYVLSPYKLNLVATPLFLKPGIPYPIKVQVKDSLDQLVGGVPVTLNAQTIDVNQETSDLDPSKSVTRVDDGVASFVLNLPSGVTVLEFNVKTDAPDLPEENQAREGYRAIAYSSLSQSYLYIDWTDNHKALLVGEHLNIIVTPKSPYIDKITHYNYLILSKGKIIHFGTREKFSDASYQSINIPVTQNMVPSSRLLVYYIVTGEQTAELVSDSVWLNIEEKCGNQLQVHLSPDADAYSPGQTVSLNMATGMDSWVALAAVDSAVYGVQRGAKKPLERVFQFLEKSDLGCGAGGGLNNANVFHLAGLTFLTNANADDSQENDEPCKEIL
T1 sequence (P01031 678-1676, chain 2 of 2): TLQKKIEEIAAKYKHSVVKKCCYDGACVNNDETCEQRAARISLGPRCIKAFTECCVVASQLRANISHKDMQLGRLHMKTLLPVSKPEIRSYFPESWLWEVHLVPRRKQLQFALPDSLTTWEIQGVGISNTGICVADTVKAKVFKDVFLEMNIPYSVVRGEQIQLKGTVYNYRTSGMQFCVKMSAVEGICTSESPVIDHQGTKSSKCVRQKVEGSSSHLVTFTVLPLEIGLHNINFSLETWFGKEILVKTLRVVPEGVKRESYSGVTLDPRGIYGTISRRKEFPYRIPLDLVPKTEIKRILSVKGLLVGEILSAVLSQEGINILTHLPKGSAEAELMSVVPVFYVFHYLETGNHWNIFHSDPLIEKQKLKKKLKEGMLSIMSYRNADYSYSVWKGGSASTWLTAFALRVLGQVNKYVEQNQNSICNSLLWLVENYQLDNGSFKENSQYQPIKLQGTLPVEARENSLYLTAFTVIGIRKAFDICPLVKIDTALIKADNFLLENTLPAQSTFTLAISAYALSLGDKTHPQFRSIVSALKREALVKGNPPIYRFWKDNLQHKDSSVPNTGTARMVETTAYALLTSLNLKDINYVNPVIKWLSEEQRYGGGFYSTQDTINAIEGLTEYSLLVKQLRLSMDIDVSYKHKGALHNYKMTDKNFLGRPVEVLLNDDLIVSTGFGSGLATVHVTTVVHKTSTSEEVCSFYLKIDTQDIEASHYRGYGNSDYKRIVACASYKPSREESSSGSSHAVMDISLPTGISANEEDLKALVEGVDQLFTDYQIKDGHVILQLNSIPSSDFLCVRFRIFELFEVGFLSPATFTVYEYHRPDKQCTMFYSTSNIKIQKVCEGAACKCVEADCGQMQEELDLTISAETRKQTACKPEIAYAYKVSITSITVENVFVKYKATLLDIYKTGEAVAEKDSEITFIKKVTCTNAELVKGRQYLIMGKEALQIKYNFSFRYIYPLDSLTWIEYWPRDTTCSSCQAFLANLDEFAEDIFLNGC

B1: anti-human C5 mAb 11D9 (antibody, V domains shown)
VH: EVQLQQSGPEVVKPGASVKISCKASGYTFTDFYMNWVKQSHGKSLEWIGYINPNNGDTSYNQKFKGKATSTVDRSSNTAYMELRSLTSEDSAVYYCARLIFYGNWYFDVWGTGTTVTVSS
VL: EIVLTQSPPTMAASPGEKITITCSASSSISSNYVHWYQQKPGFSPKLLIYRTSNLASGVPVRFSGSGSGTSYSLTIGTMEAEDVATYYCQQGTSIPWTFGGGTKVEINR
Kd [1]: 2.2 nM

B3: anti-human C5 mAb 9G6 (antibody, V domains shown)
VH: QIQLVQSGPELKKPGETVKISCKASGYTFTEYPMHWVKQAPGKSFKWMGILYTDTGEPTYAEEFRGRFAFSLETSASTAYLQINNLKNEDTATYFCVHSGYVGYWGQGTTLTVSS
VL: DIQMTQSPASLSASVGETVTFTCRASEIIYSYLVWYQQKQGKSPQLLVSNAKTLAEGVPSRFSGSGSGTQFSLKINSLQPEDFGSYYCQHYYGNPPTFGGGTKLEIKR
Kd [3]: 2.2 nM

B5: anti-human C5 mAb 2G1 (antibody, V domains shown)
VH: EVQLQQSGPELVKPGASVKISCKASGYTITDYNLDWVKQSHGKSLEWIGDISPNYGYTIYNQKFKDKATLTVDRSSSTAYMELRSLTSEDTAVYYCARRDIRYSGNSYKWYFDVWGTGTTVTVSS
VL: DVQITQSPSYLAASPGETITINCRTSKSISKYLAWYQEKPGKTNKLLIYSGSTLQSGIPSRFRGSGSGTDFTLTISSLEPEDFAMYYCQQHNEYPYTFGGGTKLEIK
Kd [5]: 0.845 nM

Next, values leading:

Kd [2]: 12.5 nM
B2: anti-human C5 mAb 11C5 (antibody, V domains shown)
VH: EVQLVESGGGLVKPGGSLKLSCAASGFTFTTYAMSWVRQTPEKRLEWVATISAGGTYTYYSDNVKGRFTISRDNAKNNLYLQMSHLKSEDTAMFYCARDPDYYGRSPFAYWGQGTLVTVSA
VL: EIVLTQSPATLSVTPGESVSLSCRASQSISNNLQWYQQKSHESPRLLIKYASQSISGIPSRFSGSGSGTDFTLSINSVETEDFGMYFCQQSNSWPLTFGGGTKVELKR

Kd [4]: 0.427 nM
B4: anti-human C5 mAb 8E1 (antibody, V domains shown)
VH: QVQLKESGPGLVAPSQSLSITCTVSGFPLNNYGIHWVRQPPGKGLEWLAVIWSDGRTTYNSALNSRLSISKDNSKSQVFFKMNSLQTDDTAMYYCARHDGRGDYSMDYWGQGTSVTVSS
VL: ELVMTQSPASLVVSLGQRATISCRASKGVSTSVYSYMHWYQQKPGQPPKLLIYLASNLESGVPARFSGSGSGTDFSLNIHPVEEEDAATYYCQQSGELPLTFGAGTKLELKR
